From patent publication US8133978 (GlaxoSmithKline, dated 2012)

What was measured:
[1] = molecular target: T1, Human interleukin-18 (recombinant human IL-18) (human, UniProt Q14116 37-193); test: SPR, Biacore T100, Protein A capture, 25 C, mean n = 4
T1 construct: also called hIL-18
T1 sequence: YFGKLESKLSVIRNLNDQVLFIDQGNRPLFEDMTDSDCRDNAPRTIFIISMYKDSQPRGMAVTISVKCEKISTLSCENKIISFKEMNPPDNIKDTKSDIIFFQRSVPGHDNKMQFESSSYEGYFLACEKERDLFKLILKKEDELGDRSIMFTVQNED
Method: (§1) The methodology was basically the same as for the method used in Example 4a above; Protein A was immobilised on a CM5 chip at densities of between 2000-6000 RU's by primary amine coupling. Runs were carried out in HBS-EP (Biacore™). The anti-IL-18 antibodies were captured to densities of between 100-500 RUs, human IL-18 was passed over this captured surface at concentrations between 16-0.0625 nM, with 0 nM concentration (i.e., a buffer only injection of captured antibody) used for double referencing. Regeneration after each injection of IL-18 was by mild acidic elution using two injections of 10 mM glycine, pH1.5. […] The binding curves obtained were analysed using the analysis software inherent to the T100 machine using the 1:1 model of binding. Runs were carried out at the temperatures indicated.
These experiments were carried out as described above. Table 6 details the kinetic parameters obtained. […] H1L2 has a better on-rate (ka) than H1L1.

[2] = molecular target: T1, Human interleukin-18 (recombinant human …); test: SPR, Biacore 3000, antibody captured on Protein A, 37 C
Method: (§2) Biacore™ kinetic analysis of the humanised 2C10 antibodies was carried out on a Biacore™ 3000 instrument using Protein A capture of the antibodies in HBS-EP buffer (Biacore™). Briefly, Protein A was immobilised on a CM5 chip by primary amine coupling, using manufacturers recommended protocol, to densities around 2000-4000 resonance units (RU's). Humanised antibody was then passed over the Protein A surface and captured to levels of around 200-500 RU's, after a period of stabilisation, IL-18 (human or Rhesus) was passed over the captured antibody surface at defined concentrations and binding sensorgrams were obtained. […] All curves were double referenced against a buffer injection instead of IL-18 and the data was fitted to the 1:1 binding model using the global fit parameters in BiaEval 4.1. Off-rate ranking experiments were set up using the same Protein A capture method, however, only a single concentration of IL-18 was used (10 nM). Whilst the data was fitted using the same binding model as the kinetic analysis, since only one concentration of analyte was used on the off-rate is reported, this value is useful for ranking rather than giving an exact kinetic measurement and was used as a way of selecting which antibodies would be further investigated.
(§3) Based upon these observations selected antibodies were investigated in greater detail for binding to human and Rhesus IL-18 at 37° C. The data shown in Table 4b for human IL-18 is the mean (and standard deviation) of six separate determinations.

Rhesus IL-18 = molecular target: T2, Rhesus IL-18 (rhesus (rhesus/cynomolgus)); test: as above
T2 construct: also called Rhesus/Cynomolgus IL-18; rhesus/cynomolgus IL-18
Method: as §2, §3

[3] = molecular target: T1, Human interleukin-18 (recombinant human …); test: SPR, Biacore T100, antibody captured on Protein A, 15 C
[4] = molecular target: T1, Human interleukin-18 (recombinant human …); test: SPR, Biacore T100, antibody captured on Protein A, 37 C
Method: as §1
This experiment was carried out using the above method at various temperatures. […] Table 5 details the kinetic values used to create these figures.

[5] = molecular target: T1, Human interleukin-18 (recombinant human …); test: ELISA, antibody on plate, human IL-18 captured, detected by 16D10; 37 C, in serum
Method: (§4) ELISA was carried out with the three Humanised H1 variants; H1L1, H1L2 and H1L3 to assess binding to human IL-18 at room temperature and at 37° C. in both human serum and in block solution (PBS 0.05% TWEEN with 1% BSA (w/v)). The Humanised antibody variants were immobilised on Nunc Maxisorp 96-well plates at 2.5 µg/ml. Capture of 5 ng/ml of recombinant human IL-18 was carried out either at room temperature or 37° C. in human serum or block solution. Anti-IL-18 mouse monoclonal antibody 16D10 was added. The bound mouse antibody was detected using anti-mouse kappa peroxidase conjugate (Serotec MCA 1291P). Representative EC50 values generated from the study data are illustrated in Table 9.

[6] = molecular target: T1, Human interleukin-18 (recombinant human …); test: ELISA, antibody on plate, human IL-18 captured, detected by 16D10; 37 C, blocking buffer
Method: as §4

[7] = molecular target: T1, Human interleukin-18 (recombinant human …); test: ELISA, antibody on plate, human IL-18 captured, detected by 16D10; room temperature, blocking buffer
Method: as §4

[8] = molecular target: T1, Human interleukin-18 (recombinant human …); test: ELISA, antibody on plate, human IL-18 captured, detected by 16D10; room temperature, in serum; room temperature incubation, in presence of serum
Method: as §4

- Kd [1]: 0.0163 nM
- Kd [2]: 0.197 nM
- Kd (Rhesus IL-18): 0.139 nM
- Kd [3]: 0.01 nM
- Kd [4]: 0.0223 nM
- EC50 [5]: 9.79 ng/mL
- EC50 [6]: 3.4 ng/mL
- EC50 [7]: 3.55 ng/mL
- EC50 [8]: 9.79 ng/mL
B1: H1L2 humanised anti-IL-18 antibody (antibody, human IgG1, kappa, V domains shown)
VH: QVQLVQSGAEVKKPGASVKVSCKVSGEISTGYYFHWVRQAPGKGLEWMGRIDPEDDSTKYAERFKDRVTMTEDTSTDTAYMELSSLRSEDTAVYYCTTWRIYRDSSGRPFYVMDAWGQGTLVTVSS
VL: DIQMTQSPSSVSASVGDRVTITCLASEDIYTYLTWYQQKPGKAPKLLIYGANKLQDGVPSRFSGSGSGTDYTLTISSLQPEDFATYYCLQGSKFPLTFGQGTKLEIKR
notes: Human IgG1 / kappa
